Drawing on paper PMC8104107, this text covers stoichiometry N for one molecule.

The test has as its target T1, influenza A/WSN/33 virus nucleoprotein (NP), recombinant (influenza A virus A/WSN/33 (H1N1)), P15682.
T1 chain: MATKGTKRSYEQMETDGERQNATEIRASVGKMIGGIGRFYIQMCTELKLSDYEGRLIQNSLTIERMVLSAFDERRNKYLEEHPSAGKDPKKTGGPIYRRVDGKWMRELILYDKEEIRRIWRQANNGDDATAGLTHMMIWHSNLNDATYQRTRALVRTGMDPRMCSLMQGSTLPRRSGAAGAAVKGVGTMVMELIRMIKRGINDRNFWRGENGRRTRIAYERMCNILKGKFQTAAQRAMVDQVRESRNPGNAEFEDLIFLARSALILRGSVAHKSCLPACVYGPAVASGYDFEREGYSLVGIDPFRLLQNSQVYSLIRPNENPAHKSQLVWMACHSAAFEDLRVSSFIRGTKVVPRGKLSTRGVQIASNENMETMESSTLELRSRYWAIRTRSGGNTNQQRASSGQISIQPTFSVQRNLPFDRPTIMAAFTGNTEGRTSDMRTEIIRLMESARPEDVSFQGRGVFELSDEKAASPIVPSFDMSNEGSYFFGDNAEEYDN
The experiment in a line: crystal structure; NP mixed with FA-6005 (final 0.5 mM) before crystallization; 0.1 M sodium acetate, 0.05 M magnesium acetate, 0.1 M MES pH 6.0, 7% PEG 8000, 5% glycerol; space group C222(1), one trimer in each asymmetric unit. The conditions noted are these: remark: other sources report otherwise.

B1: influenza A/WSN/33 virus nucleoprotein (NP), recombinant, P15682 1-498 (natural protein)
chain: T1 chain
Consider B1, for which the stoichiometry N is 3.

The stoichiometry N is the number of molecules, sites or subunits per partner or assembly.
